As a reminder, the Kd is the constant that tells how readily two partners part at equilibrium. Lower therefore signals higher affinity.

The target in data set [1] is T1, UbcH5B S22R C85K covalently linked to Ub (UbcH5B_(S22R)–Ub) (human, UniProt P62837 1-147; P0CG47 1-76, S22R | C85K, Lys85 (C85K) in a stable amide linkage to Ub | covalently linked to Lys85 of UbcH5B S22R C85K (amide linkage)).
T1 construct: UbcH5B, human Ub-conjugating enzyme (E2); ubiquitin (Ub), human, donor Ub; source: E. coli BL21 (DE3) Gold
Nature of the data set: SPR; as a1, but UbcH5B–Ub variants diluted in running buffer containing 0.6 mM UbΔGG; GST-cIAP1R coupled to a CM-5 chip, 25 °C; steady-state affinity analysis. To be noted: both partners purified. On the technique in general: In SPR one partner is held on a chip, and binding of the other changes the refractive index at the surface.

A further data set deals with T2, UbcH5B (human, UniProt P62837 1-147).
T2 construct: UbcH5B, human Ub-conjugating enzyme (E2), untagged; also called UbcH5B WT
Nature of the data set: SPR; GST-cIAP1R coupled to a CM-5 chip, Biacore T200, 25 °C; analytes diluted in 25 mM Tris-HCl pH 7.6, 150 mM NaCl, 0.1 mg/ml BSA, 1 mM DTT, 0.005% Tween 20; GST alone subtracted; steady-state affinity analysis. To be noted: both partners purified.

For data set [2], the target named is T3, UbcH5B C85K covalently linked to Ub (UbcH5B–Ub) (human, UniProt P62837 1-147; P0CG47 1-76, C85K, Lys85 (C85K) in a stable amide linkage to Ub | covalently linked to Lys85 of UbcH5B C85K (amide linkage)).
T3 construct: UbcH5B, human Ub-conjugating enzyme (E2); ubiquitin (Ub), human, donor Ub (Ub^D); the model of 6HPR holds residues 1-76; source: E. coli BL21 (DE3) Gold
The data set is described as above. Particulars: both partners purified.

For data set [3], the target named is T1, UbcH5B S22R C85K covalently linked to …. The description is as above. To be noted: both partners purified.
A further data set concerns the target T4, ubiquitin (Ub) (human, UniProt P0CG47 1-76).
T4 construct: ubiquitin (Ub), human; in the model of 6HPR Ub^B is chain B (residues 1-74 seen) and Ub^D chain D (residues 1-76); Free Ub was mixed into the crystallised complex as Ub^B; in the rows on Ub^D it stands for the Ub part of the conjugate m4; also called WT Ub
In words: crystal structure; cIAP1R, UbcH5B–Ub and Ub mixed at 1:1:1.2 molar ratio; sitting drop, 0.2 M ammonium fluoride, 15% PEG 3350, 19 °C; 1.7 Å; dimer generated by crystallographic symmetry. Particulars: both partners purified.

Data set [4] concerns the molecule itself. The data set is described as above.

B1: GST-cIAP1R (cIAP1 RING domain, residues 556-C, with GST) (domain or fragment, human, UniProt Q13490 556-618, looked up)
chain: LSLEEQLRRLQEERTCKVCMDKEVSVVFIPCGHLVVCQECAPSLRKCPICRGIIKGTVRTFLS
notes: pGEX4T1 with a TEV site after GST; the tag is not cleaved in this form; source: E. coli BL21 (DE3) Gold; not shown: GST, N-terminal, kept
With B1, the Kd in data set [1] is 0.99 ± 0.05 µM; in the data set with UbcH5B it was 223 ± 4 µM; in data set [2], 0.83 ± 0.05 µM; in data set [3], 0.9 ± 0.01 µM.

B2: cIAP1 RING domain (residues 556-C; cIAP1R) (domain or fragment, human, UniProt Q13490 556-618, looked up)
chain: LSLEEQLRRLQEERTCKVCMDKEVSVVFIPCGHLVVCQECAPSLRKCPICRGIIKGTVRTFLS
notes: Homodimer through the RING domain; in the crystal the dimer is generated by crystallographic symmetry; also called cIAP1 RING dimer; not shown: GST, N-terminal, cleaved
As for B2, the binding result (with ubiquitin (Ub); in data set [4]) was “binds” in each case.

For the origin of these results see paper PMC6349121, “Structural insights into non-covalent ubiquitin activation of the cIAP1-UbcH5B∼ubiquitin complex” (The Journal of Biological Chemistry, 2018).
